This passage reports Kd results from paper PMC12114846 (2025).

The target in this experiment is IL-15 (Homo sapiens, UniProt P40933).
IL-15, sequence (P40933 49-162): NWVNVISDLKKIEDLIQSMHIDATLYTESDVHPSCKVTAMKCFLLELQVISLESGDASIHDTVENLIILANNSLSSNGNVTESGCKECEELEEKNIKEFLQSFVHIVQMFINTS

B1: rILR-Fc (IL-15Rα-Sushi-Fc) Sushi (protein)
chain: TRGITCPPPMSVEHADIWVKSYSLYSRERYICNSGFKRKAGTSSLTECVLNKATNVAHWTTPSLKCIRDPA
modifications: Fc fusion
For the molecule B1, the equilibrium dissociation constant (Kd) turned out to be 240 pM. That is a sub-nanomolar value.

Usually Kd stands for the concentration at which binding is half-saturated.
